Target: Merkel cell polyomavirus (MCPyV) major capsid protein VP1, amino acids 38-320, unassembled pentamer (Merkel cell polyomavirus (w162))
Assay: crystal structure; unassembled VP1 pentamers, native and soaked with DSL, 3SLN or GD1a; hanging drop at 20°C, 100 mM sodium cacodylate pH 6.5, 6% PEG 3,350, 300 mM magnesium chloride; four VP1 pentamers in the asymmetric unit

**Q.** “Merkel cell polyomavirus (MCPyV) major capsid protein VP1, amino acids 38-320, unassembled pentamer (domain or fragment)” was tested. Which stoichiometry N did it give?
**A.** 5

From paper PMC3406085
